Source: patent publication US9938510B2, “Photobacterium sp. alpha-2-6-sialyltransferase variants” (The Regents of the University of California, priority 2014, dated 2018)
Numbering of substitutions follows the chain as printed. Names may count otherwise.

B1: Psp26ST(15-501)-His6: recombinant Photobacterium sp. JH-ISH-224 α2-6-sialyltransferase, residues 15-501, C-terminal His6, wild-type; SEQ ID NO: 23 (protein)
chain: CNNSEENTQSIIKNDINKTIIDEEYVNLEPINQSNISFTKHSWVQTCGTQQLLTEQNKESISLSVVAPRLDDDEKYCFDFNGVSNKGEKYITKVTLNVVAPSLEVYVDHASLPTLQQLMDIIKSEEENPTAQRYIAWGRIVPTDEQMKELNITSFALINNHTPADLVQEIVKQAQTKHRLNVKLSSNTAHSFDNLVPILKELNSFNNVTVTNIDLYDDGSAEYVNLYNWRDTLNKTDNLKIGKDYLEDVINGINEDTSNTGTSSVYNWQKLYPANYHFLRKDYLTLEPSLHELRDYIGDSLKQMQWDGFKKFNSKQQELFLSIVNFDKQKLQNEYNSSNLPNFVFTGTTVWAGNHEREYYAKQQINVINNAINESSPHYLGNSYDLFFKGHPGGGIINTLIMQNYPSMVDIPSKISFEVLMMTDMLPDAVAGIASSLYFTIPAEKIKFIVFTSTETITDRETALRSPLVQVMIKLGIVKEENVLFWA
modifications: C-terminal His6; Synthetic Psp26ST(15-501) WILD TYPE
B2: A366G: Photobacterium sp. JH-ISH-224 α2-6-sialyltransferase residues 15-501, A366G point mutation, C-terminal His6; SEQ ID NO: 2 (protein)
chain: B1 chain with A352G
modifications: C-terminal His6; Synthetic Psp26ST(15-501) A366G

Experiments:
Format in all cases: biochemical
[1] = Kinetics of CMP-Neu5Ac donor hydrolysis activity (capillary electrophoresis)
Description: Procedure for Kinetic Analysis of Donor Hydrolysis by His6-Pd2,6ST(16-497), Psp26ST(15-501)-His6 and its A235D and A366G Mutants
The kinetics study for the donor hydrolysis activity of His6-Pd2,6ST(16-497) was carried out at 37° C. for 20 min in Tris-HCl buffer (200 mM, pH 8.0). The kinetics study for the donor hydrolysis activities of Psp26ST(15-501)-His6 and its A235D mutant was carried out at 20° C. for 10 min in Tris-HCl buffer (200 mM, pH 8.0). All reactions were performed in duplicate in a total volume of 10 μL containing varied concentrations of CMP-Neu5Ac (10, 20, 40, 60, 80 and 100 mM) and the enzyme (6 μM). Reactions were stopped by adding 10 μL of ethanol and then centrifuged. The supernatants were analyzed by a P/ACETM capillary electrophoresis (CE) system equipped with a photodiode array (PDA) detector (Beckman Coulter, Inc., Fullerton, Calif.). CE conditions were as follows: 75 μm i.d. capillary, 25 KV/80μÅ, 5 s vacuum injections, monitored at 200 nm and 254 nm, the running buffer used was sodium tetraborate (25 mM, pH 9.4). Apparent kinetic parameters were obtained by fitting the experimental data (the average values of duplicate assay results) into the Michaelis-Menten equation using Grafit 5.0.

[2] = Sialylation assay with periodic addition of CMP-Neu5Ac
Description: Two reactions were set up at 20° C. in MES buffer (200 mM, pH 5.0) containing Psp2,6ST(15-501)-His6 (6.0 μM), CMP-Neu5Ac (1 mM), and GalNAcα2AA (1 mM) in a total volume of 50 μL. One of the reactions was used as a control and was incubated for 4 h. The other was incubated for 1 h, 2 equivalents of CMP-Neu5Ac was then added. The same dose was added every hour for up to 4 h reaction duration. Aliquots (2 μL each) were withdrawn and the reactions were stopped by adding 10 μL of cold ethanol followed by centrifugation. The samples were diluted and kept on ice until aliquots of 8 μL were injected and analyzed by a Shimadzu LC-6AD system equipped with a membrane on-line degasser, a temperature control unit, and a fluorescence detector (Shimadzu RF-10AXL). A reverse-phase Premier C18 column (250×4.6 mm i.e., 5 μm particle size, Shimadzu) protected with a C18 guard column cartridge was used. The mobile phase was 25% acetonitrile in water. The 2-aminobenzoic acid (2AA)-labeled fluorescent acceptor and the product formed were detected with excitation at 315 nm and emission at 400 nm.

[3] = Apparent sialyltransferase kinetics, GalNAcα2AA as acceptor
Description: (§1) Reactions were carried out in duplicate at 20° C. for 20 minutes in a total volume of 10 μL in a proper buffer at the optimal pH according to the pH profile of the wild-type enzyme (see, Ding, 2011, supra). When LacβMU was used as an acceptor, the conditions were: Tris-HCl buffer (200 mM, pH 8.0), enzyme (0.3 μM), varied concentrations of LacβMU (0.1, 0.25, 0.4, 1.0, 2.0, 4.0, and 6.0 mM) with a fixed concentration of CMP-Neu5Ac (1.0 mM) or varied concentrations of CMP-Neu5Ac (0.1, 0.25, 0.4, 1.0, 2.0, 4.0, and 6.0 mM) with a fixed concentration of LacβMU (1.0 mM). When GalNAcα2AA was used as an acceptor, the conditions were: NaOAc-HOAc buffer (200 mM, pH 5.0), enzyme (6 μM), varied concentrations of GalNAcα2AA (0.5, 0.8, 1.0, 2.0, 4.0, 8.0, and 10.0 mM) and a fixed concentration of CMP-Neu5Ac (4.0 mM) or varied concentrations of CMP-Neu5Ac (0.5, 1.0, 2.0, 4.0, 5.0, 8.0, and 10.0 mM) with a fixed concentration of GalNAcα2AA (1.0 mM). When GalNAcαSer was used as an acceptor, the conditions were: Tris-HCl buffer (200 mM, pH 8.0), enzyme (0.6 μM), varied concentrations of GalNAcαSer (0.1, 0.25, 0.5, 1.0, 2.0, 4.0, 8.0, and 10.0 mM) and a fixed concentration of CMP-Neu5Ac (2.0 mM). […]

[4] = Apparent sialyltransferase kinetics, GalNAcαSer as acceptor
Description: as §1

[5] = Apparent sialyltransferase kinetics, GalNAcαThr as acceptor
Description: as §1

[6] = Sialyltransferase activity assays, statements not tied to one acceptor (LacβMU, GalNAcα2AA, GalNAcαSer, GalNAcαThr); settings: α-linked N-acetyl galactosaminides, especially GalNAcα2AA or GalNAcαThr, as acceptor
Description: When LacβMU was used as an acceptor, the assay was performed in duplicate in 10 μL of Tris-HCl buffer (100 mM, pH 8.0) containing CMP-Neu5Ac (1 mM), LacβMU (1 mM), MgCl2 (20 mM), wild-type Psp2,6ST(15-501)-His6 or its mutant (0.3 μM). When an α-GalNAc-terminated acceptor was used, the assay was performed in duplicate in 10 μL of Tris-HCl buffer (100 mM, pH 8.0 for GalNAcαSer/Thr) or NaOAc-HOAc (100 mM, pH 5.0 for GalNAcα2AA) containing CMP-Neu5Ac (1.5 mM), the acceptor (1 mM), MgCl2 (20 mM), wild-type Psp2,6ST(15-501)-His6 or its mutant (3.0 μM). Reactions were allowed to proceed at 20° C. for 20 min and stopped by adding 10 μL of cold ethanol. The analysis of sialylated product conversion was performed using the HPLC system as described above for sialyltransferase activity assay. The 4-methylumbelliferone (MU)-labeled fluorescent acceptor and the product formed were detected with excitation at 325 nm and emission at 372 nm. The 2-aminobenzoic acid (2AA)-labeled fluorescent acceptors and the products formed were detected with excitation at 315 nm and emission at 400 nm. The 9-fluorenylmethylcarbamate (Fmoc)-labeled fluorescent acceptors and the products formed were detected with excitation at 262 nm and emission at 313 nm.

Molecule | CMP-Neu5Ac hydrolysis efficiency relative to sialyltransferase activity (more efficient) ([1]; versus kcat/Km with GalNAcα2AA as acceptor) | CMP-Neu5Ac hydrolysis efficiency relative to sialyltransferase activity (lower) ([1]; versus kcat/Km with LacβMU as acceptor) [fold] | sialylation yield ([2]; after an additional two equivalents of CMP-Neu5Ac, in 15 min) [%] | sialylation yield ([2]; after the fourth dose (2 equivalents) of CMP-Neu5Ac) [%] | sialylation yield ([2]; after the third dose (2 equivalents) of CMP-Neu5Ac) [%] | sialylated product Neu5Acα2-6GalNAcα2AA formed ([2]; one equivalent of CMP-Neu5Ac, MES pH 5.0, 20° C., enzyme 6.0 μM, GalNAcα2AA 1 mM) [%] | catalytic efficiency (kcat/Km) higher than the wild-type enzyme [3] [fold] | catalytic efficiency (kcat/Km) higher than the wild-type enzyme [4] [fold] | catalytic efficiency (kcat/Km) higher than the wild-type enzyme [5] [fold] | sialyltransferase activity compared to wild-type [6]
B1 | about 14 fold | 13 | 17 | 33 | 25 | 7.3 |  |  |  | 
B2 |  |  |  |  |  |  | 1.3 | 1.2 | 2.1 | improved sialyltransferase activity
